Reference: US20080317723A1, “LYMPHATIC ENDOTHELIAL CELLS MATERIALS AND METHODS” (VEGENICS LIMITED, priority 2001, published 2008)

T1: hVEGFR-3 (Homo sapiens, UniProt P35916)
T1 construct: Ig (immunoglobulin fusion partner); made in house
T1 sequence (P35916 25-775 limits assumed): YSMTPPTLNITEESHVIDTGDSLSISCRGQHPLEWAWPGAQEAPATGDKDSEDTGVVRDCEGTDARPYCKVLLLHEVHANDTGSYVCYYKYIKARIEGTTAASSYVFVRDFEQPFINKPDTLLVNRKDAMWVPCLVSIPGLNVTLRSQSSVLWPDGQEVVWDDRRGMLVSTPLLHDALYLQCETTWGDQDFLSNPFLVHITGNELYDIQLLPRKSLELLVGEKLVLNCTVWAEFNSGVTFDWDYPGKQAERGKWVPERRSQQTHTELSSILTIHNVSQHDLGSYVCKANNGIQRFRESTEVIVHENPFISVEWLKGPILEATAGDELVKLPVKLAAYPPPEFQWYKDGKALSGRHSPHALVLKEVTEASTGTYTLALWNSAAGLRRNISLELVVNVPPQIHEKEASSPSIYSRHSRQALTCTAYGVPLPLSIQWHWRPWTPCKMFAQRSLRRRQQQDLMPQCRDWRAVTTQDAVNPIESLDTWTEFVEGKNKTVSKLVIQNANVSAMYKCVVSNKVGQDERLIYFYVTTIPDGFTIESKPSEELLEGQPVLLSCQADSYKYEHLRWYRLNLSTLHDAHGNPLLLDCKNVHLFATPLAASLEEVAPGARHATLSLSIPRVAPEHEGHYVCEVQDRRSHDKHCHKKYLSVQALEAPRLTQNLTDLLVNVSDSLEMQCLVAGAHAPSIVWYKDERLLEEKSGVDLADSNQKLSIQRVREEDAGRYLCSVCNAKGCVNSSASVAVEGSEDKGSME

B1: VEGF-C156S: VEGFR-3 specific mutant form of VEGF-C, cysteine 156 changed into serine; recombinant human (Thr103 to Ile225) (protein, UniProt P49767 103-225, looked up, variant C156S)
chain: TEETIKFAAAHYNTEILKSIDNEWRKTQCMPREVCIDVGKEFGVATNTFFKPPSVSVYRCGGCCNSEGLQCMNTSTSYLSKTLFEITVPLSQGPKPVTISFANHTSCRCMSKLDVYRQVHSII

Tests used:
[1] = system: HMVE cells; assay: Annexin-V staining of serum-starved HMVE cells with podoplanin co-staining; assay type: cell-based, human; conditions: 72 hours serum-free medium; podoplanin positive vs negative cells, FIG. 3
Procedure: FIG. 3. Quantitation of the Annexin-V positive cells (% of adherent cells) in the podoplanin positive and negative cell populations after 72 hours of serum starvation. Data represent mean values from five counted areas (×400) (mean±s.d.).
Analysis of endothelial cell apoptosis. For the apoptosis assay, 70,000 cells per well were seeded into 24-well plates. Treatments were done in duplicates and apoptosis was detected by measuring cytoplasmic histone-associated DNA fragments using the death detection ELISA PLUS kit (Roche, Indianapolis, Ind.). The following ranges of growth factor concentrations were tested: bFGF 10-20 ng/ml, PlGF-1 50-1000 ng/ml, VEGF 10-50 ng/ml, VEGF-C 50-1000 ng/ml, VEGF-D 50-1000 ng/ml, VEGF-C156S 50-1000 ng/ml and VEGF-E 50-1000 ng/ml. Annexin-V-FLUOS (Roche, Indianapolis, Ind.) was used to detect phosphatidylserine on the apoptotic cells by fluorescence microscopy according to the instructions of the manufacturer. The simultaneous staining with propidium iodide (1 μg/ml) was used for discriminating possible necrotic cells.
Annexin-V staining of the HMVE cells was performed after 72 hours of culture in serum-free medium alone (BSA) or with stimulation of VEGF or VEGF-C. Simultaneous staining using antibodies against podoplanin was used to distinguish lymphatic and blood vascular endothelial cells. […]

[2] = biological target: T1, hVEGFR-3; assay: Biosensor (BIAcore) analysis of ligand binding to immobilized VEGFR-3; conditions: hVEGFR-3 bivalent immunoglobulin fusion protein immobilized; global fitting, 1:1 Langmuirian model with mass transfer
Procedure: Biosensor Analysis. All preparations were analysed for homogeneity and buffer exchanged by micropreparative size exclusion HPLC using a Superose 12 (3.2/30) column installed in a SMART system (Amersham Pharmacia Biotech, Uppsala, Sweden) immediately prior to use (Nice and Catimel, Bioessays, 21:339-352, 1999). The concentrations of VEGF-C and VEGF-D were determined by absorbance at 280 nm using E280 1% 1 cm of 0-65. Receptor domains were coupled to the carboxymethylated dextran layer of a CM5 sensor chip using standard amine coupling chemistry (Nice and Catimel, Bioessays, 21:339-352, 1999) for analysis of ligad binding using a BIAcore 2000 optical biosensor (BIAcore, Uppsala, Sweden). The levels immobilized were 3,000 RU and 7,000 RU for VEGFR-2 and VEGFR-3, respectively. […] The apparent binding affinities of VEGF-C and VEGF-C156S to receptor domains were determined by analysis of the initial dissociation phase to obtain the kd, which was then used to constrain a global analysis of the association region of the curves, assuming a 1:1 Langmuirian model. Data were analysed using BLAevaluation 3.0 (BIAcore, Uppsala, Sweden) as described previously (Catimel et al., J. Chromatogr., 776:15-30, 1997). […]

Molecule | Annexin-V positive cells / survival [1] | Ka [2]
VEGF | strongly decreased the number of cells displaying Annexin-V positivity | 
B1 | increased the survival of mainly the lymphatic endothelial cells | 3500 M⁻¹ s⁻¹
